This note sets out measurements from patent publication US20260125468A1 (NONA BIOSCIENCES SUZHOU, published 2026).

The target of assay [1] is T1, Biotinylated cynomolgus CD3e&d protein (Acro Biosystems, CDD-C82W6) (cynomolgus, UniProt Q95LI5 22-117; Q95LI8 22-105, biotinylated protein; chain and site not stated).
T1 construct: Bought protein loaded on SA Octet biosensors
Description: BLI (Octet RED96e), biotinylated antigen on SA biosensors. The protocol:
To determine the binding affinities of anti-CD3 antibodies to human or cynomolgus monkey CD3e&d heterodimer proteins, bio-layer interferometry (BLI) assays were carried out by using Octet® RED96e.
Biotinylated human CD3e&d protein (Acro Biosystems, CDD-H82W6) or biotinylated cynomolgus CD3e&d protein (Acro Biosystems, CDD-C82W6) was first loaded onto the surface of SA Octet biosensors (Sartorius, 18-5019) to reach capture levels between 0.5-0.8 nm. The loaded biosensors were then dipped in wells containing 2-fold serial dilutions of testing antibodies to detect association signals, followed by dissociation steps in wells containing kinetic buffer. The association phase was 180 seconds, and the dissociation phase was 900 seconds. The sensorgrams were recorded, and the reference signals were subtracted before curve fitting using ForteBio Data Analysis 11.0 software. Association rates (kon) and dissociation rates (koff) were calculated using a simple one-to-one Langmuir binding model. The equilibrium dissociation constant (KD) was calculated as the ratio of koff/kon.

Assay [2] deals with T2, CD3 on T cells in cynomolgus monkey PBMCs (cynomolgus monkey, UniProt Q95LI5 22-198; Q95LI8 22-171; Q95LI7 23-181).
T2 construct: whole, on cells
T2 sequence (Q95LI5 22-198, chain 1 of 3): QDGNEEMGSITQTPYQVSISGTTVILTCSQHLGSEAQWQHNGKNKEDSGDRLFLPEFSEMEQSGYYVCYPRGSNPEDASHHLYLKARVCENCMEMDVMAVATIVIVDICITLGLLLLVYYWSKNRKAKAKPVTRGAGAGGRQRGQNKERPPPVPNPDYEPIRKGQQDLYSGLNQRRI
T2 sequence (Q95LI8 22-171, chain 2 of 3): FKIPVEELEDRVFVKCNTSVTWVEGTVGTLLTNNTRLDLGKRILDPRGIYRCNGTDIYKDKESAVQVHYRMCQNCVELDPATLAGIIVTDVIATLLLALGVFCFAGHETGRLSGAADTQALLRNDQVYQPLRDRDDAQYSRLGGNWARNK
T2 sequence (Q95LI7 23-181, chain 3 of 3): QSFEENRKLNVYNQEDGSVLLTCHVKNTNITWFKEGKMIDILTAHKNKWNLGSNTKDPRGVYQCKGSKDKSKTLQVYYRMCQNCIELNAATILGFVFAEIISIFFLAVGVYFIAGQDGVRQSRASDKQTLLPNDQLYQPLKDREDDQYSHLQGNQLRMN
Description: FACS on cynomolgus monkey PBMCs, 2-fold serial dilution from 200 nM [A]. The protocol:
(§1) The cross reactivity to cynomolgus monkey for 3G11-HCAb (PR010991) and derived B7H4xCD3 PR008551 was evaluated by assays of binding activity to cynomolgus monkey PBMCs by FACS method and T cell mediated cytotoxicity with cynomolgus monkey PBMCs by RTCA method. In this example, Anti-CD3/TCR HCAb PR006361 derived from patent WO2016180982A1 and its derived B7H4xCD3 PR006001 were used as control antibodies. These antibodies are generated as described in Example 8.
(§2) Cynomolgus monkey PBMCs were isolated from 10 mL fresh cynomolgus monkey blood using Ficoll Paque Plus (Cytiva 17-1440-02) following the vendor's instructions. The recombinant antibodies were diluted from 200 nM to 11 different concentrations by 2-fold serial dilution. The diluted samples were incubated with cynomolgus monkey PBMCs for 1 hour, and then the secondary antibody (Alexa Fluor®488 AffinityPure Goat Anti-Human IgG (Fcγ Fragment Specific), Jackson ImmunoResearch, 109-545-098) was added and incubated for 1 hour. The cells were washed twice with staining buffer and subjected to flow cytometry. The data were processed by FlowJo v10 (FlowJo, LLC) and non-linear curve fitting analyzed by GraphPad Prism 8.

In assay [3] the target is T2, CD3 on T cells in cynomolgus monkey …. Kind of assay: FACS on cynomolgus monkey PBMCs, 2-fold serial dilution from 200 nM [B]. As for the experimental part:
as §1, §2

T1 sequence (Q95LI5 22-117, chain 1 of 2): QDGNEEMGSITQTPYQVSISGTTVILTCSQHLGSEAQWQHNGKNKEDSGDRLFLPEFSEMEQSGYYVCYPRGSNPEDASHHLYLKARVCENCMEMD
T1 sequence (Q95LI8 22-105, chain 2 of 2): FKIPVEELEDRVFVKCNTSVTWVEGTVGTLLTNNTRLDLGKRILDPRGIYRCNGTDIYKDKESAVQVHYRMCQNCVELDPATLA

B1: PR006361, anti-CD3/TCR HCAb hIgG1(AAG) from WO2016180982A1 (antibody, V domains shown)
VH: EVQLVESGGGPVQAGGSLRLSCAASGRTYRGYSMGWFRQAPGKEREFVAAIVWSGGNTYYEDSVKGRFTISRDNAKNTMYLQMTSLKPEDSATYYCAAKIRPYIFKIAGQYDYWGQGTQVTVSS
notes: Control heavy-chain-only antibody from prior art; C220S and AAG mutations
B1: the binding result in assay [1] is reported as “no binding (tested: 12.5-200 nM)”; in assay [2], “no binding (tested: 200 nM)”.

B2: PR006001, anti-B7H4xCD3 VH(PR006361)-Fc-scFv(PR003366), hIgG1(dCH1, KiH, LALA) (bispecific antibody)
chain 1: not shown
chain 2: EIVMTQSPASLSVSPGERATLSCRASQSVSSNLAWYQQKPGQAPRLLIYGASTRATGIPARVSGGGSGTEFTLTISSLQSEDFAVYYCQQYKNWPFTFGPGTKLEIKGGGGSGGGGSGGGGSGGGGSQVQLVQSGAEVKKPGSSMRVSCKASEDTFSSYAISWVRQAPGQGLEWMGGTAPIFGTTNYAQKFQGRVTITADKSTSTAYMELSSLRSEDTAVYYCARGGPYFDYWGQGTLVTVSSASEPKSSDKTHTCPPCPAPEAAGGPSVFLFPPKPKDTLMISRTPEVTCVVVDVSHEDPEVKFNWYVDGVEVHNAKTKPREEQYNSTYRVVSVLTVLHQDWLNGKEYKCKVSNKALPAPIEKTISKAKGQPREPQVCTLPPSREEMTKNQVSLSCAVKGFYPSDIAVEWESNGQPENNYKTTPPVLDSDGSFFLVSKLTVDKSRWQQGNVFSCSVMHEALHNHYTQKSLSLSPGK
notes: Control bispecific; anti-CD3 VH-Fc chain and anti-B7H4 scFv-Fc chain
For B2, the binding result in assay [3] was “no binding (tested: 200 nM)”.
